Where a chain is given by its changes, count along the chain named. Read-outs that look alike come from different tables or passages of the source.
T1: cynomolgus C5 (Macaca fascicularis) (cynomolgus (Macaca fascicularis), Beta and alpha chains are joined by disulfide bonds; the protein is a serum glycoprotein.)
T1 construct: also called cyno C5; cynoC5
T1 beta: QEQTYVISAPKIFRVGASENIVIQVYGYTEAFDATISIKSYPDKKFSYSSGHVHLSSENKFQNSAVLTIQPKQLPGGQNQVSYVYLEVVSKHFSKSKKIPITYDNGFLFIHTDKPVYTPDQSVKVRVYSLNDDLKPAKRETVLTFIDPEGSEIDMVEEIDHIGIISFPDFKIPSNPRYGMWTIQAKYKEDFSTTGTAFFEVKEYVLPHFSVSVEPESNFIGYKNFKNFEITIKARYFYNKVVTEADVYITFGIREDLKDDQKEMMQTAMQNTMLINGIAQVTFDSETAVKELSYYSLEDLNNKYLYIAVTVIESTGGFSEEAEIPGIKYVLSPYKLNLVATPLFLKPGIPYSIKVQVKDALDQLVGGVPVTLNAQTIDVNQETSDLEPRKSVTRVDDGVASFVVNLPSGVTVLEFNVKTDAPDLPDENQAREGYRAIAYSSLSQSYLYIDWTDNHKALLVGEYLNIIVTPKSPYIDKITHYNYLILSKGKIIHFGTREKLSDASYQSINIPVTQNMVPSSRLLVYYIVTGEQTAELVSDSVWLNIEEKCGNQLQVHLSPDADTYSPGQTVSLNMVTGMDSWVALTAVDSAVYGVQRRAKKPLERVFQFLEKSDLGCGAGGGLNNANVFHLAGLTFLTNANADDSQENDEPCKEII
T1 alpha: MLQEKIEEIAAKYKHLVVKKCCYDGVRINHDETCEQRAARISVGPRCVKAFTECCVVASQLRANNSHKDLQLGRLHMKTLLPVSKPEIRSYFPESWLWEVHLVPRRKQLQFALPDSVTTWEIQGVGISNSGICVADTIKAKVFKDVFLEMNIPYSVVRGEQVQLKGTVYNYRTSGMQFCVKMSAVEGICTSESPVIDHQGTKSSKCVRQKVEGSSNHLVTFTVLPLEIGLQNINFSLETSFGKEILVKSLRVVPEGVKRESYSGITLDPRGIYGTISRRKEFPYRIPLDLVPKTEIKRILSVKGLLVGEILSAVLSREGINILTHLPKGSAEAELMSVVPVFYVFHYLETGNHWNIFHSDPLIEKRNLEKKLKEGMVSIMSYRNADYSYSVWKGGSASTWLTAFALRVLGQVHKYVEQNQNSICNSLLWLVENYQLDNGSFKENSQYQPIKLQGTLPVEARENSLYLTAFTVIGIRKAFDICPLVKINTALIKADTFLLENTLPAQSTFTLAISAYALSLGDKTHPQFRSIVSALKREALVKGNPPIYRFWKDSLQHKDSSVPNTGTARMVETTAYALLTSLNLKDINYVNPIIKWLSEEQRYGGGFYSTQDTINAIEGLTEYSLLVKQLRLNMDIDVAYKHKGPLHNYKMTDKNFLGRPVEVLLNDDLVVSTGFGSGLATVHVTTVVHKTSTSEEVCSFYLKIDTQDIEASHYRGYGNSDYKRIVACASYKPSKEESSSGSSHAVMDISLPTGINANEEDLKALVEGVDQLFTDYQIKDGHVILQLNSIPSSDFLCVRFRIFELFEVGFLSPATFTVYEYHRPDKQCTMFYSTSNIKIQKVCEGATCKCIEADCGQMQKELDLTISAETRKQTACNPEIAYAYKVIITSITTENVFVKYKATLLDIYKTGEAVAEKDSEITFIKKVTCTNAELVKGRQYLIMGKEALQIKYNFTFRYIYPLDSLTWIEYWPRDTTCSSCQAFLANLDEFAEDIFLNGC

B1: MOR08111 (antibody, human IgG1, lambda, L234A L235A, V domains shown)
VH: EVTLKESGPALVKPTQTLTLTCTFSGFSLSTSGGGVSWIRQPPGKALEWLANIDDADIKDYSPSLKSRLTISKDTSKNQVVLTMTNMDPVDTATYYCARGPYGFDSWGQGTLVTVSS
VL: ESALTQPASVSGSPGQSITISCTGTSSDIGTYNYVSWYQQHPGKAPKLMIYDDSNRPSGVSNRFSGSKSGNTASLTISGLQAEDEADYYCQSYDSQSIVFGGGTKLTVLG
notes: Germlined final IgG, human IgG1AA format
B2: MOR08114 (antibody, human IgG1, lambda, L234A L235A, V domains shown)
VH: EVQLVQSGAEVKKPGESLKISCKGSGYSFTSYYIGWVRQMPGKGLEWMGIIDPTDSQTAYSPSFQGQVTISADKSISTAYLQWSSLKASDTAMYYCARYMMRGFDHWGQGTLVTVSS
VL: SYELTQPPSVSVAPGQTARISCSGDSLGDYYAYWYQQKPGQAPVLVIYKDNNRPSGIPERFSGSNSGNTATLTISGTQAEDEADYYCQTWDTGESGVFGGGTKLTVLG
notes: Germlined final IgG, human IgG1AA format; also called Antibody 8114
B3: MOR07872 (Fab, V domains shown)
VH: B2 VH with E1Q, T54S, Q57H, A59T
VL: DIELTQPPSVSVAPGQTARISCSGDSLGDYYAYWYQQKPGQAPVLVIYKDNNRPSGIPERFSGSNSGNTATLTISGTQAEDEADYYCQTWDILPHGLVFGGGTKLTVLG
notes: light CS or A
B4: MOR07873 (Fab, V domains shown)
VH: B2 VH with E1Q, T54S, Q57H, A59T
VL: B3 VL with T89A, D91T, I92D, L93S, H95T
notes: light CS or A
B5: MOR07086 hu IgG1 (antibody, V domains shown)
VH: QVQLVQSGAEVKKPGSSVKVSCKASGGTFSSYAISWVRQAPGQGLEWMGGIGPFFGTANYAQKFQGRVTITADESTSTAYMELSSLRSEDTAVYYCARDTPYFDYWGQGTLVTVSS
VL: DIELTQPPSVSVAPGQTARISCSGDSIPNYYVYWYQQKPGQAPVLVIYDDSNRPSGIPERFSGSNSGNTATLTISGTQAEDEADYYCQSFDSSLNAEVFGGGTKLTVL

Assays:
[1] = target: T2, human complement C5 protein (human, UniProt P01031 19-673; P01031 678-1676, Beta and alpha chains are joined by disulfide bonds. C5 was biotinylated in some assays.)
[2] = target: cynomolgus C5 (Macaca fascicularis) (cynomolgus (Macaca fascicularis))
[3] = target: T2, human complement C5 protein; remark: listed apart in the source
[4] = target: T2, human complement C5 protein; remark: listed apart in the source
[5] = target: T2, human complement C5 protein; experiment: SET (MSD), IgG, 2nd measurement
Procedure: (§1) In order to improve the sensitivity and accuracy of the SET method, it was transferred from classical ELISA to ECL based technology (Haenel et al., Anal Biochem 339:182-184 (2005)).
(§2) 1 mg/ml goat-anti-human (Fab)₂ fragment specific antibodies (Dianova) were labelled with ECL Sulfo-TAG™ NHS-Ester (Meso Scale Discovery, Gaithersburg, Md., USA) according to the manufacturer's instructions. The experiments were carried out in polypropylene microliter plates and PBS pH 7.4 with 0.5% BSA and 0.02% Tween 20 as assay buffer. […] Wells without antigen were used to determine Bmax values; wells containing neither antigen nor IgG were used to determine background. After addition of e.g. 10 pM IgG (final concentration in 60 μl final volume), the mixture was incubated over night at RT. The applied IgG concentration was similar to or below the expected KD.
(§3) Streptavidin MSD plates were coated with 0.2 μg/ml biotinylated human C5 (30 μl/well) and blocked with 5% BSA in PBS. Subsequently the equilibrated samples were transferred to those plates (30 μl per well) and incubated for 20 min. After washing, 30 μl/well of the ECL Sulfo-tag labeled detection antibody (goat anti-human (Fab)₂) in a final dilution of 1:1500 was added to the MSD plate and incubated for 30 min on an Eppendorf shaker (700 rpm).

[6] = target: T2, human complement C5 protein; experiment: SET (MSD), IgG, 1st measurement
Procedure: as §1, §2, §3

[7] = target: T2, human complement C5 protein; experiment: SPR (Biacore), IgG captured via anti-human Fc, C5 injected
Procedure: (§4) A CM4 chip was coated with 50 μg/ml goat anti-human Fc antibody (500-2000 RU) in 10 mM acetate buffer, pH 4.5, using standard EDC-NHS amine coupling chemistry. Each anti-human C5 IgG was captured on the chip in HBS-EP buffer at constant flow rate of 10 μl/min for a contact time leading to a ligand density around 20 RU. […] Each cycle was completed with two regeneration steps with phosphoric acid. All running conditions were carried out at 25° C. in 1× HBS-EP buffer. The resulting signals were adjusted by double referencing, substracting the refraction index values from the reference flow cell and the binding step with no analyte. Data were collected at 10 Hz and analyzed using the Biacore T100 Evaluation Software Version 1.1 (GE). This program uses a global fitting analysis method for the determination of rate and affinity constants for each interaction. […]

[8] = target: T2, human complement C5 protein; remark: listed apart in the source
[9] = target: T2, human complement C5 protein; experiment: cell-based or functional assay
[10] = target: T1, cynomolgus C5 (Macaca fascicularis); experiment: SET (MSD), IgG, 2nd measurement
Procedure: as §1, §2, §3

[11] = target: T1, cynomolgus C5 (Macaca fascicularis); experiment: SET (MSD), IgG, 1st measurement
Procedure: as §1, §2, §3

[12] = target: T1, cynomolgus C5 (Macaca fascicularis); experiment: cell-based or functional assay
[13] = target: T1, cynomolgus C5 (Macaca fascicularis); experiment: SPR (Biacore), IgG captured via anti-human Fc, C5 injected
Procedure: as §4

[14] = target: T2, human complement C5 protein; experiment: cell-based or functional assay; remark: listed apart in the source
[15] = target: T2, human complement C5 protein; experiment: cell-based or functional assay; remark: listed apart in the source
human complement C3 = target: T3, human complement C3 (human, UniProt P01024 23-667; P01024 672-1663); experiment: solution ELISA: Fab with biotinylated antigen on NeutrAvidin plate, His-tag detection [huC3 panel]
T3 construct: Counter target in the ELISAs, coated directly or biotinylated; also called human C3
Procedure: Fabs were incubated with biotinylated antigen on a Neutravidin plate and detected via the histidin tag.

[16] = target: T1, cynomolgus C5 (Macaca fascicularis); experiment: affinity chromatography

T3 sequence (P01024 23-667 limits assumed, chain 1 of 2): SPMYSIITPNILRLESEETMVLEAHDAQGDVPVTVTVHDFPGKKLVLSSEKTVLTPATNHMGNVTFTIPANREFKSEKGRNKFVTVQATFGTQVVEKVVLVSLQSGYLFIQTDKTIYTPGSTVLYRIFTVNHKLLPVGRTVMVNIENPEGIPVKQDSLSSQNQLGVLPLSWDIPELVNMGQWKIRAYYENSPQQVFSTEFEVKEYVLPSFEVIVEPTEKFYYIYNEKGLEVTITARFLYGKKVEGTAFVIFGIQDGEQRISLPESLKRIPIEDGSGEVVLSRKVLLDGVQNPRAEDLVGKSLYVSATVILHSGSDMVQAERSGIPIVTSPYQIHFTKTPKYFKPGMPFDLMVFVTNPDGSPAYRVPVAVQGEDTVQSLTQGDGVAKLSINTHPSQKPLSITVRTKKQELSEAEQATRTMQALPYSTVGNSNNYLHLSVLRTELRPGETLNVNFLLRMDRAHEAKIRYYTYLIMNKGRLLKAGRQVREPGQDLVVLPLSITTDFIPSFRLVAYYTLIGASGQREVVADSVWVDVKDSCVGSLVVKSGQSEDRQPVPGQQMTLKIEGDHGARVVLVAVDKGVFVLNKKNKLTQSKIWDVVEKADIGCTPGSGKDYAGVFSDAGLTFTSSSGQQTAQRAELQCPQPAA
T3 sequence (P01024 672-1663 limits assumed, chain 2 of 2): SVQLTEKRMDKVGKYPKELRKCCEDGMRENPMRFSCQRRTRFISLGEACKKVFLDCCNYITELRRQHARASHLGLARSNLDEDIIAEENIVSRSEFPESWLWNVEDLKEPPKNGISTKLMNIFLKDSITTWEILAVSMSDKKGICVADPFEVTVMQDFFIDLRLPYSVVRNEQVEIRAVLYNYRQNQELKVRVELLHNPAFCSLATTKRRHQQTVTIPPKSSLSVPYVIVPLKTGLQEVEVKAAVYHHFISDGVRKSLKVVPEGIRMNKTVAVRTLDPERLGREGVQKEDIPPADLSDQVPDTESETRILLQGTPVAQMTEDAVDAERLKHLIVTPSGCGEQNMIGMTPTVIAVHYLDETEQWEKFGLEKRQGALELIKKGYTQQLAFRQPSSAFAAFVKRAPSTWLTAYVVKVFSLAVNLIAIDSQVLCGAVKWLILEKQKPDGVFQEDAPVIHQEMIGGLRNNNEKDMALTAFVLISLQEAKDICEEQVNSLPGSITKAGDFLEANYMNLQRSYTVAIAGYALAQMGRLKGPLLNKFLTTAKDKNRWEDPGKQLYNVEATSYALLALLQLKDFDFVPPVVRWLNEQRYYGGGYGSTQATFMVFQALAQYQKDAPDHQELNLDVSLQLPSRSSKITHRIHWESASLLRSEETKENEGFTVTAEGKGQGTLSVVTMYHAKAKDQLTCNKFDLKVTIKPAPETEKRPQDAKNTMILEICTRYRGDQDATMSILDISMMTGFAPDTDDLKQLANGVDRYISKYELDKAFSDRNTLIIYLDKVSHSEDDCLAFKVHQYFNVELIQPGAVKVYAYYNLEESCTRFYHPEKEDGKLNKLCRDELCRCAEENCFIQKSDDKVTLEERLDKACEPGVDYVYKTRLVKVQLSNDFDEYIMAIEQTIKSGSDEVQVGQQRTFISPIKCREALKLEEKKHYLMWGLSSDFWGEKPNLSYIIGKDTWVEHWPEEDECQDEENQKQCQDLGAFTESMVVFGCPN

Row | Molecule | Kd [5] [pM] | Kd [6] [pM] | Kd [7] [pM] | Kd [10] [pM] | Kd [11] [pM] | IC50 (read off the curve); hemolysis CP, 5% cyno serum [12] [pM] | koff [7] [s⁻¹] | kon [7] [M⁻¹ s⁻¹] | Kd [13] [pM] | koff [13] [s⁻¹] | kon [13] [M⁻¹ s⁻¹] | IC50; hemolysis CP, 20% human serum [14] [pM] | binding result (human complement C3) | further results
1 | 5G1.1 (antibody) | 19 | 24 | 56 | – | – | – | – | – | – | – | – | – | – | IC50 (read off the curve); hemolysis AP, 100 pM human C5 [panel b] [1]: 90 pM; IC50; hemolysis AP, 100 pM cyno C5 in 20% human C5-depleted serum [panel a] [2]: 1.71 nM; IC50; hemolysis AP, 100 pM human C5 [panel a] [3]: 0.14 nM; IC50; hemolysis AP, 100 pM human C5 [panel c] [3]: 0.205 nM; IC50; hemolysis AP, 100 pM human C5 [panel i] [4]: 58.2 pM; IC50 (read off the curve); C5a ELISA on AP hemolysis supernatants, 20% human serum [panel d] [8]: 20000 pM; IC50 (read off the curve); hemolysis AP, 20% human serum [panel c] [8]: 50000 pM
2 | B1 | 3 | 5 | 31 | 17 | 14 | ~20000 | 3.07e-05 | 1e+06 | 144 | 0.000128 | 891000 | 21500 | – | IC50 (read off the curve); hemolysis AP, 100 pM human C5 [panel a] [9]: ~0.1 nM
3 | B2 | 2 | 1 | 15 | 4 | 5 | ~30000 | 3.12e-05 | 2.09e+06 | 31 | 3.13e-05 | 1.06e+06 | 34200 | – | IC50 (read off the curve); hemolysis AP, 20% human serum [panel c] [15]: ~50000 pM; IC50 (read off the curve); hemolysis AP, 100 pM human C5 [panel c] [9]: ~20 pM
4 | B3 | – | – | – | – | – | – | – | – | – | – | – | – | no binding (tested: 100 nM) | –
5 | B4 | – | – | – | – | – | – | – | – | – | – | – | – | no binding (tested: 100 nM) | –
6 | B5 | – | – | – | – | – | – | – | – | – | – | – | – | – | binding result [16]: binds
